Source: patent US20230241072A1, “ANTHRACYCLINE DERIVATIVES” (ALMAC DISCOVERY LIMITED, priority 2019, published 2023)
Positions count from the first letter of the chain named.

Experiments:
[1] = target: T1, human ROR2 (Homo sapiens, UniProt Q01974); test: SPR / BLI binding to immobilised ROR2-hFc
T1 construct: ROR1-hFc or ROR2-hFc fusion proteins (extracelluar domains) were immobilised
Method: (§1) VNARs were genetically fused to engineered hIgG1 Fc domains via standard [G4S]3 that contained a cysteine substitution in the hIgG1 Fc sequence, S239C (EU numbering). The VNAR Fc fusion proteins were expressed as secreted protein in CHO K1 cells and purified from the media using MabSelect™ SuRe™ (Evitria, Switzerland). Purified proteins were analysed by SEC (AdvanceBio, Agilent), SDS PAGE and mass spectrometry to confirm sequence and protein integrity. Binding kinetics were determined using a Pioneer Surface Plasmon Resonance (SPR) instrument (SensiQ/Pall ForteBio), or the Biolayer Interferometry (BLI) Octet K2 system (ForteBio). ROR1-hFc or ROR2-hFc fusion proteins (extracelluar domains) were immobilised in sodium acetate pH5 buffer to COOH2 chips or AR2G sensors using amine coupling. VNARs and VNAR-Fc molecules were tested at various concentrations and the Ka (M^−1 s^−1), Kd (s^−1) and KD (nM) values were determined using QDat software (SensiQ/Pall ForteBio) or Octet Data Analysis High Throughput software (ForteBio) for Biolayer Interferometry. ROR1 2A2 mAb (Biolegend) and ROR2 mAb (R&D Systems) were included as controls for positive/negative binding to ROR1 and ROR2. 2V is a control VNAR sequence, derived from a naïve VNAR library, so is representative of this protein class but has no known target.
(§2) Binding kinetics for binding of the multimeric VNAR proteins to ROR1-hFc or ROR2-hFc fusion proteins (extracelluar domains) were determined using a Pioneer Surface Plasmon Resonance (SPR) instrument (SensiQ/Pall ForteBio) or the Biolayer Interferometry (BLI) Octet K2 system (ForteBio) as previously described.

[2] = target: ROR1 (Homo sapiens, UniProt Q01973); test: SPR / BLI binding kinetics to immobilised ROR1-hFc; set-up: ROR1-hFc or ROR2-hFc fusion proteins (extracelluar domains) were immobilised
Method: as §1, §2

[3] = tested on: Kasumi-2; test: In vitro cell viability assay (Cell Titre Glo), VNAR drug conjugates: Kasumi-2; type: cell-based, human
Method: (§3) In Vitro Cell Viability Assays for Cancer Cells Treated with Anti ROR1 VNAR Drug Conjugates
(§4) Cells were seeded into white, clear bottom 96 well plates (Costar) and incubated at 37° C., 5% CO2 for 24 hours. On the following day, dilution series were set up for each test agent at ×10 working stocks. The dose response ×10 stock was: 10000, 5000, 1000, 500, 100, 50, 10, 5, 1, 0.5 nM etc. 10 μL of the ×10 stock solutions were added to the cell plates (90 μl per well) using a multichannel pipette. […] 100d of vehicle control (PBS) was added to the control wells (columns 11 and 12). Plates were incubated at 37′C, 5% CO2 for 72-96 hours. Promega Cell litre Glo reagent was used as per the manufacturer's instructions to assess cell viability. Briefly, assay plates were removed from incubator and allowed to equilibrate to room temperature before adding […] of room temperature Cell litre Glo reagent to each 100 μl assay well. Plates were placed on a plate shaker for 2 minutes at 600 rpm. Plates were allowed to sit for a further 10 minutes at room temperature prior to measuring luminescence read-out using a Clariostar plate-reader (BMG). Data was analysed by calculating the average for untreated (vehicle only) control wells and determining the % of control for each treated well. % of control data was then plotted against Log [Treatment] concentration and the IC50 value derived using non-linear regression fitting in GraphPad Prism software.
(§5) The following cell lines were used: • Kasumi-2—human B cell leukaemia precursor; • PA-1—human ovarian cancer cell line; • PA-1 ROR1 ko—human ovarian cancer cell line with ROR1 knock-out; • 697—human B cell leukaemia precursor, and • MHH-ES1—human Ewing's sarcoma cell line.

[4] = tested on: MHH-ES1; test: In vitro cell viability assay (Cell Titre Glo), VNAR drug conjugates: MHH-ES1; type: cell-based, human
Method: as §3, §4, §5

[5] = target: Cathepsin B (Homo sapiens, UniProt P07858); test: Cathepsin B treatment of protein-PNU conjugates, payload release; type: in vitro ADME; conditions: after treatment with Cat B; protein 10 uM (2VhFc conjugate 5 uM)
Excerpt: Cathepsin B treatment of VNAR-hFc-vc-PAB-EDA-PNU conjugates and the corresponding conjugates of the multimeric proteins liberated free EDA-PNU159682 derivative in a quantitative fashion. Whereas, VNAR-hFc-va-EDA-PNU conjugates and the corresponding conjugates of the multimeric proteins were completely stable to Cathepsin B treatment.
Only the vc-PAB-EDA-PNU releases payload on treatment with CatB as expected for the conditions used in this in vitro assay. The release is quantitative—as the conjugates have a drug to antibody ratio of 2, then twice the concentration of payload released versus the concentration of conjugate is expected after CatB treatment. This expectation matches the data shown in Table 11 for vc-PAB-EDA-PNU conjugates.

[6] = tested on: PA-1 ROR1 ko; test: In vitro cell viability assay (Cell Titre Glo), VNAR drug conjugates: PA-1 ROR1 ko; type: cell-based, human
Method: as §3, §4, §5

[7] = tested on: PA-1; test: In vitro cell viability assay (Cell Titre Glo), VNAR drug conjugates: PA-1; type: cell-based, human
Method: as §3, §4, §5

[8] = Human plasma stability of protein-PNU conjugates (LC-MS of released payload); type: in vitro ADME; conditions: 37° C., up to 168 h, 4 or 2 uM PDC, LLOQ 0.1 or 0.156 uM
Method: Different conjugates were incubated at 37° C. for 168 h in human plasma at a final concentration of 4 μM or 2 μM of protein. Samples were analysed by LC-MS as a function of time up to and including 168 h and the amount of released PNU159682 and EDA-PNU159682 derivative was quantified by reference to calibration standards.

[9] = Mouse plasma stability of protein-PNU conjugates (LC-MS of released payload); type: in vitro ADME; conditions: 37° C., 4 μM protein
Method: Different P3A1-hFc-PNU conjugates were incubated at 37° C. in mouse plasma at a final concentration of 4 μM of protein. Samples were analysed by LC-MS as a function of time and the amount of released PNU159682 and EDA-PNU159682 derivative was quantified by reference to calibration standards.

[10] = tested on: 697; test: In vitro cell viability assay (Cell Titre Glo), VNAR drug conjugates: 697; type: cell-based, human
Method: as §3, §4, §5

[11] = Table 3, VNAR-Fc fusions, association rate
[12] = Table 3, VNAR-Fc fusions, dissociation rate
[13] = ratio to corresponding non-binding 2V-hFc conjugate

B1: hFc - P3A1: hIgG1 Fc - VNAR P3A1 fusion (protein)
chain: GGGGSGGGGSGGGGSTRVDQTPRTATKETGESLTINCVLTDTSYGLYSTSWFRKNPGTTDWERMSIGGRYVESVNKGAKSFSLRIKDLTVADSATYYCKAREARHPWLRQWYDGAGTVLTVN
modifications: left off: a dimerising Fc or GST
notes: hIgG1 Fc - VNAR P3A1 fusion
**Q.** Which hROR2 ([1]; Table 3, VNAR-Fc fusions) does the source give for B1 here?
**A.** No binding

**Q.** And the “hROR1 Ka” value [2, 11]?
**A.** 2.38e+06 M⁻¹ s⁻¹

**Q.** What about the “hROR1 Kd” value [2, 12] of the same molecule?
**A.** 0.000776 s⁻¹

**Q.** What about the Kd ([2]; Table 3, VNAR-Fc fusions, read-out: hROR1 KD) of the same molecule?
**A.** 0.35 nM

B2: B1V15 hFc: humanised VNAR B1V15 (SEQ ID NO: 59) - hFc fusion (protein)
chain: ASVTQSPRSASKETGESLTITCRVTGANYGLAATYWYRKNPGSSNQERISISGRYSESVNKRTMSFSLRISSLTVEDSATYYCKAYPWGAGAPWLVQWYDGQGTKLEVKGGGGSGGGGSGGGGS
modifications: left off: a dimerising Fc or GST
**Q.** Which hROR2 ([1]; Table 3b, VNAR-Fc fusions) does the source give for B2 here?
**A.** No binding

**Q.** And the “hROR1 Ka” value ([2]; Table 3b, VNAR-Fc fusions, association rate)?
**A.** 179000 M⁻¹ s⁻¹

**Q.** And the “hROR1 Kd” value ([2]; Table 3b, VNAR-Fc fusions, dissociation rate)?
**A.** 0.00013 s⁻¹

B3: P3A1hFc-PEG4-vc-PAB-EDA-PNU (conjugate)
chain: TRVDQTPRTATKETGESLTINCVLTDTSYGLYSTSWFRKNPGTTDWERMSIGGRYVESVNKGAKSFSLRIKDLTVADSATYYCKAREARHPWLRQWYDGAGTVLTVNGGGGSGGGGSGGGGS
modifications: left off: a dimerising Fc or GST
**Q.** For B3, which IC50 ([3]; Table 5, 96 h) is on record?
**A.** 3.2 nM

**Q.** And the “ROR1 targeting/2V non-targeting window Kasumi-2” value [3, 13]?
**A.** 18

**Q.** What about the IC50 ([4]; Table 5, 96 h) of the same molecule?
**A.** 24 nM

**Q.** What about the “ROR1 targeting/2V non-targeting window MHH-ES1” value [4, 13] of the same molecule?
**A.** 1.1

**Q.** And the “Average Conc EDA Released” value [5]?
**A.** 20.1 µM

**Q.** What about the IC50 ([6]; Table 5, 96 h, PA-1 ROR1 ko) of the same molecule?
**A.** 11 nM

**Q.** And the “ROR1 targeting/2V non-targeting window PA-1 31-J-06” value ([6]; ratio to corresponding non-binding 2V-hFc conjugate, PA-1 31-J-06 (ROR1 −/−; matches PA-1 ROR1 ko of Table 5))?
**A.** 1.3

**Q.** What about the IC50 ([7]; Table 5, 96 h) of the same molecule?
**A.** 0.1 nM

**Q.** What about the “ROR1 targeting/2V non-targeting window PA-1” value [7, 13] of the same molecule?
**A.** 73

**Q.** What about the “Observed EDA payload release” value [8] of the same molecule?
**A.** EDA-PNU not detected above LLOQ

**Q.** And the “Concentration (nM) of free PNU payload detected by LC-MS, 4 h” value ([9]; 4 h)?
**A.** 21 nM

**Q.** And the “Concentration (nM) of free PNU payload detected by LC-MS, 24 h” value ([9]; 24 h)?
**A.** 84 nM

**Q.** What about the “Concentration (nM) of free PNU payload detected by LC-MS, 48 h” value ([9]; 48 h) of the same molecule?
**A.** 108 nM

**Q.** What about the “Concentration (nM) of free PNU payload detected by LC-MS, 72 h” value ([9]; 72 h) of the same molecule?
**A.** 107 nM

**Q.** What about the “Concentration (nM) of free PNU payload detected by LC-MS, 96 h” value ([9]; 96 h) of the same molecule?
**A.** 101 nM

**Q.** What about the “Concentration (nM) of free PNU payload detected by LC-MS, 120 h” value ([9]; 120 h) of the same molecule?
**A.** 114 nM

**Q.** And the IC50 ([10]; Table 5, 96 h)?
**A.** 52 nM

**Q.** What about the “ROR1 targeting/2V non-targeting window 697” value [10, 13] of the same molecule?
**A.** 1.2

B4: 2V hFc: non-binding control VNAR 2V fused to hIgG1 Fc (protein)
chain: B3 chain with R86Q, E87S, A88L, R89A, H90I, P91S, W92T, L93R, R94S, Q95Y
modifications: left off: a dimerising Fc or GST
**Q.** With B4 as the molecule, how does the hROR2 ([1]; Table 3, VNAR-Fc fusions) read?
**A.** No binding

**Q.** What about the “hROR1 KD (nM)” value ([2]; Table 3, VNAR-Fc fusions) of the same molecule?
**A.** No binding

**Q.** What about the “hROR1 Ka (M^−1s^−1)” value [2, 11] of the same molecule?
**A.** No binding

**Q.** What about the “hROR1 Kd (s^−1)” value [2, 12] of the same molecule?
**A.** No binding
